Results: PMC5764952 (2018)

Biological target: Untagged murine saposin A (SapA) (mouse)
Assay: crystal structure; complex formed at pH 5.0 with the detergent LDAO, SapA:GALC molar ratio 2:1; crystals at 20 °C from 75 mM sodium citrate pH 5.6, 11% PEG 3350; 3.6 Å

stoichiometry N: 2
Substance: Untagged murine saposin A (SapA) (natural protein)
